Assays:
c-Src SH2 = assay: SH2 binding enrichment of the phosphorylated peptide, bacterial display (enrichment ratio); higher = better substrate or ligand; peptides without Tyr show the background
SHP2-C SH2 = assay: as above
Grb2 SH2 = Grb2 SH2 (UniProt P62993); assay: as above
FGFR1 = FGFR1 (UniProt P11362); assay: phosphorylation enrichment, bacterial display (enrichment ratio); higher = better substrate or ligand; peptides without Tyr show the background
Hck = Hck (UniProt P08631); assay: as above
AncSZ = assay: as above
EPHB2 = EPHB2 (UniProt P29323); assay: as above
FGFR3 = FGFR3 (UniProt P22607); assay: as above
MERTK = MERTK (UniProt Q12866); assay: as above
EPHB1 = EPHB1 (UniProt P54762); assay: as above
Fyn = Fyn (UniProt P06241); assay: as above
c-Abl (mouse) = assay: as above
Fer (mouse) = assay: as above
c-Src = assay: as above
Fes = Fes (UniProt P07332); assay: as above
Jak2 = Jak2 (UniProt O60674); assay: as above
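Wherever SH2 binding enrichment of the phosphorylated peptide, bacterial display is given: peptide library displayed on the E. coli surface as eCPX fusions, selected cells deep-sequenced, score is each peptide's frequency after selection divided by its frequency in the input.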
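Wherever phosphorylation enrichment, bacterial display is given: 11-residue human phosphosite peptides and single-mutation variants displayed on the E. coli surface, counted by deep sequencing, each peptide's frequency after selection divided by its frequency in the unselected input library; frequency after pTyr selection over input frequency; kinase dosed for 20-30% of maximal phosphorylation in three min.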

Sequence of Hck (P08631 whole entry, looked up): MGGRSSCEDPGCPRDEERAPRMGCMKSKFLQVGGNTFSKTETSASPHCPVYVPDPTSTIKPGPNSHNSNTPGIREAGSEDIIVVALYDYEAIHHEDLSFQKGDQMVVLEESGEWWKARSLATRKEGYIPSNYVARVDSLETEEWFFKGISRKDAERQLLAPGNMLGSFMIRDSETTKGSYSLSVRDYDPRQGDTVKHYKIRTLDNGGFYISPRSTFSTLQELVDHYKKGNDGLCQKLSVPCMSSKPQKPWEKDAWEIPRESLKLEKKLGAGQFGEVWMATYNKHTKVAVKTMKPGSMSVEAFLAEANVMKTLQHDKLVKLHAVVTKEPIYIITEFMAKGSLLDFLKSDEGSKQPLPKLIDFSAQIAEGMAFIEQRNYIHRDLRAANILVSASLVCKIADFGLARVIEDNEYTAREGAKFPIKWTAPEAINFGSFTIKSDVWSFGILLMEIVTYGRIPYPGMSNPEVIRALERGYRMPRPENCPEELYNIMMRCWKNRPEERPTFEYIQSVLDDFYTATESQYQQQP
Sequence of Jak2 (O60674 whole entry, looked up, the tested form may be a part): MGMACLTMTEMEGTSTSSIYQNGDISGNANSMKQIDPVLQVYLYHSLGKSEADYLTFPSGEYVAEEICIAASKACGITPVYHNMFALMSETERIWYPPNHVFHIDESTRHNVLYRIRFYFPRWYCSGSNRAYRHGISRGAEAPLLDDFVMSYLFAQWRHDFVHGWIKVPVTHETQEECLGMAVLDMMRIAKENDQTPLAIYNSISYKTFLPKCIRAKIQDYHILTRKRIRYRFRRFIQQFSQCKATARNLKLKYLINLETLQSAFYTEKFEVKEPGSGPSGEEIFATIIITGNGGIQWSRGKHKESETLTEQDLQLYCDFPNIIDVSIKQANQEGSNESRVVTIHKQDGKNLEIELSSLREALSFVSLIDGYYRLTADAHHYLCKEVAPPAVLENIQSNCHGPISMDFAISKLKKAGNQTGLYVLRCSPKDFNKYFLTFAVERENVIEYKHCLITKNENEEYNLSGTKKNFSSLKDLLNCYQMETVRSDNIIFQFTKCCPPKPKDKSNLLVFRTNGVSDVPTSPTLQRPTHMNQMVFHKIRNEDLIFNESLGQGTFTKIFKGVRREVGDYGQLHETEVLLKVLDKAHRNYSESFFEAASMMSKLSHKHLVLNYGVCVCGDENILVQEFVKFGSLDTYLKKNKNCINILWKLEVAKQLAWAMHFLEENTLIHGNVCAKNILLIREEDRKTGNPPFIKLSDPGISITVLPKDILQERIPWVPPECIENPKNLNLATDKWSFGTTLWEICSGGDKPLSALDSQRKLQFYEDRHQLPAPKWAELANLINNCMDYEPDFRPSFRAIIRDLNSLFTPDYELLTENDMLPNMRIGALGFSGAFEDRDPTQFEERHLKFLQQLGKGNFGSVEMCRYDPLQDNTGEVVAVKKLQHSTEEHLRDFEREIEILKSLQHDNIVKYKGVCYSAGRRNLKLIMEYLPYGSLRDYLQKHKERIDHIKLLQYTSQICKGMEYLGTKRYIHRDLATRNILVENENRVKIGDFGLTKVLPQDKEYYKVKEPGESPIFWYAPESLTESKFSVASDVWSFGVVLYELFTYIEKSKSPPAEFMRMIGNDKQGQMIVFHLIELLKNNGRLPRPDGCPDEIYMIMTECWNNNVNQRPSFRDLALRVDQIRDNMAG
Sequence of FGFR1 (P11362 whole entry, looked up): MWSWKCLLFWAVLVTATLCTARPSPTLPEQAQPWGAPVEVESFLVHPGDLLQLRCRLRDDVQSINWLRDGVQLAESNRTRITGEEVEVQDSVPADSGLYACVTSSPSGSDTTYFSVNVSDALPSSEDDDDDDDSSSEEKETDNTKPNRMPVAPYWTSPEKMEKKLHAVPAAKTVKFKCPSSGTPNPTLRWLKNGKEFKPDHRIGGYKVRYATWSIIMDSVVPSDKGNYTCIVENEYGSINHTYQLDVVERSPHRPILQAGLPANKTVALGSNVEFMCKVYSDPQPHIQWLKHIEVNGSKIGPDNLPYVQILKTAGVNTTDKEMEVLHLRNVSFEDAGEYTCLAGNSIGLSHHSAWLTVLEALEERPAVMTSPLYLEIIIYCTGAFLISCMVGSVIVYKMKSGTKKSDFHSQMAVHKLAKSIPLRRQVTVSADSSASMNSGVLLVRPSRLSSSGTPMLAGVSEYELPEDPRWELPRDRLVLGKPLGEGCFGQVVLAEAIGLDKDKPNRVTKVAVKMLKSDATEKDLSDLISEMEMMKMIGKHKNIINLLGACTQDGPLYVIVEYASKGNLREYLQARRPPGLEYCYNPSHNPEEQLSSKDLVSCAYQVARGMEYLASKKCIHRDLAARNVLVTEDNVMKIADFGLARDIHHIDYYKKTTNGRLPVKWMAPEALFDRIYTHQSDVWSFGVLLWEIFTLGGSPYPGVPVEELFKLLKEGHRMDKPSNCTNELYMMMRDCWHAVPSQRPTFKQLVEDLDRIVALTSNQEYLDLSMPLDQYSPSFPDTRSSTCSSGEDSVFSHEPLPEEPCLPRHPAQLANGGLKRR
Sequence of EPHB2 (P29323 whole entry, looked up): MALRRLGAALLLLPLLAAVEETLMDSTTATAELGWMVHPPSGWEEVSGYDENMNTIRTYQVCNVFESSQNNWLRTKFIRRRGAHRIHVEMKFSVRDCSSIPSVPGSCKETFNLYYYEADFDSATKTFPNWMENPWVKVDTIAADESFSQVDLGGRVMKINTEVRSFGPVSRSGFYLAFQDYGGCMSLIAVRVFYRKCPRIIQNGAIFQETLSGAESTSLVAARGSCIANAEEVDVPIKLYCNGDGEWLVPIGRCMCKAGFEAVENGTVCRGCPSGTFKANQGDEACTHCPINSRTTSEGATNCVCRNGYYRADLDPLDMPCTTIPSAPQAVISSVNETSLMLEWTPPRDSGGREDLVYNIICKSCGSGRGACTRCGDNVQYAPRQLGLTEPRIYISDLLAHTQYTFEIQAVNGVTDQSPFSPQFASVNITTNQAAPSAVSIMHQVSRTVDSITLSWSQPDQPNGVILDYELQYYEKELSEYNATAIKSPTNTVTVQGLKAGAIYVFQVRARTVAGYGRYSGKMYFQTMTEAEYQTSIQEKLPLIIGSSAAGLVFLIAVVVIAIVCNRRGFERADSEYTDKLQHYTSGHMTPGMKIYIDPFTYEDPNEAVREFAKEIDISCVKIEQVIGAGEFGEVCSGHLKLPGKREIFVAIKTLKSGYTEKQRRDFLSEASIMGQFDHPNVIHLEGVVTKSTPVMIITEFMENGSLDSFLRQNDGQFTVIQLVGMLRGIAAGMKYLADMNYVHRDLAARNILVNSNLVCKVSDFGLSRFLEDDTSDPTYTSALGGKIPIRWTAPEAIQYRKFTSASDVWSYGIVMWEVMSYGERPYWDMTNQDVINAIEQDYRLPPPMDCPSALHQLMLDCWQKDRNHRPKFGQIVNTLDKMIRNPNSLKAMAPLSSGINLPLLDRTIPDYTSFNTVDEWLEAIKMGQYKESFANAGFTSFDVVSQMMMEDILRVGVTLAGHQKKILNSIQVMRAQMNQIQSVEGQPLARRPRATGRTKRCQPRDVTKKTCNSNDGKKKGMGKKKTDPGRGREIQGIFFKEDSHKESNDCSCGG
Sequence of EPHB1 (P54762 whole entry, looked up): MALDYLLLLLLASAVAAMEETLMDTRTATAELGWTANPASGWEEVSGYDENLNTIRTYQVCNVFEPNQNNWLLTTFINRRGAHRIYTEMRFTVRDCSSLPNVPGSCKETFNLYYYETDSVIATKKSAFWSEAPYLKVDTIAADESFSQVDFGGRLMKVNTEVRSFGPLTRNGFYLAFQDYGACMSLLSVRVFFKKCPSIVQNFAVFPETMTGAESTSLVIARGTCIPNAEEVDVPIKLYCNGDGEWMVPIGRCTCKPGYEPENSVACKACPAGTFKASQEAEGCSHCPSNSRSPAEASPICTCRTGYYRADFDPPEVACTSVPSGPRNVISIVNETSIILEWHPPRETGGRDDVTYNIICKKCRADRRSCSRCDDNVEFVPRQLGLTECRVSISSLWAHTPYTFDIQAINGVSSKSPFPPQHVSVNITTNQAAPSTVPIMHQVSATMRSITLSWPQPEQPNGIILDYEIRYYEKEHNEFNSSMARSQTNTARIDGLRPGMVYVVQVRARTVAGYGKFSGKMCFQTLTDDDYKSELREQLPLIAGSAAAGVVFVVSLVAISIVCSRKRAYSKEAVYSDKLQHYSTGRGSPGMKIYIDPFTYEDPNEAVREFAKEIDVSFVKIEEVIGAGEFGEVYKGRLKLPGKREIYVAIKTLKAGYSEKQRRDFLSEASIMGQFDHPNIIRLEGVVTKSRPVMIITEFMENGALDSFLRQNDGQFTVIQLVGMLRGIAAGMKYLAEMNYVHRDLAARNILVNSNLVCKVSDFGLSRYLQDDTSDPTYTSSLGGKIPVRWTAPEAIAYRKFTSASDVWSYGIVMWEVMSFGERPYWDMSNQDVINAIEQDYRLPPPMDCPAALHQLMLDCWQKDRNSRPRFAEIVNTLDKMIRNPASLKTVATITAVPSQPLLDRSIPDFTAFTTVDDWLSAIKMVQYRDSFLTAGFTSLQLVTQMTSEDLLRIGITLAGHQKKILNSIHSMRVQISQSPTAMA
Sequence of Grb2 SH2 (P62993 whole entry, looked up): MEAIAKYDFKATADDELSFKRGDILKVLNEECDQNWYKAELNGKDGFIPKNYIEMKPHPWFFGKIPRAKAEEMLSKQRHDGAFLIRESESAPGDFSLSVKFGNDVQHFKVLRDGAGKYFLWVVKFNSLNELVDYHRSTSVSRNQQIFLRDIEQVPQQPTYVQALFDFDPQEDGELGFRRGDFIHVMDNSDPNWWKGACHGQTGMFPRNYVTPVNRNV

Row | Sequence | SH2 binding enrichment (c-Src SH2) | SH2 binding enrichment (SHP2-C SH2) | SH2 binding enrichment (Grb2 SH2) | phosphorylation enrichment (FGFR1) | phosphorylation enrichment (Hck) | phosphorylation enrichment (AncSZ) | phosphorylation enrichment (EPHB2) | phosphorylation enrichment (FGFR3) | phosphorylation enrichment (MERTK) | phosphorylation enrichment (EPHB1) | phosphorylation enrichment (Fyn) | phosphorylation enrichment (c-Abl (mouse)) | phosphorylation enrichment (Fer (mouse)) | phosphorylation enrichment (c-Src) | phosphorylation enrichment (Fes) | phosphorylation enrichment (Jak2)
1 | LCRFGYANTSE [SI_Y1233_YF] | 0.877 | 0.881 | 1.47 | 0.455 | 0.422 | 0.756 | 0.529 | 0.581 | 0.423 | 0.454 | 0.419 | 0.625 | 0.381 | 0.405 | 0.893 | 0.706
2 | LDFNEYFRFLN [HPRT1_Y198_D201Y_YF] | 0.719 | 1.2 | 1.49 | 2.7 | 1.08 | 2.34 | 0.924 | 2.1 | 0.573 | 0.592 | 2.25 | 1.6 | 0.562 | 3.62 | 1.29 | 6.54
3 | LDFNEYFRNLN [HPRT1_Y198_D201N_YF] | 0.617 | 0.37 | 0.693 | 1.2 | 0.979 | 2.42 | 1.13 | 1.6 | 1.02 | 0.988 | 1 | 1.24 | 1.35 | 0.585 | 2.65 | 3.21
4 | LDLSFYHTSSS [EMD_Y182_P183H_YF] | 0.773 | 0.701 | 1 | 0.575 | 0.575 | 1.21 | 0.676 | 0.903 | 0.414 | 0.845 | 0.553 | 0.644 | 0.423 | 0.879 | 1.19 | 1.04
5 | LDLSFYTTSSS [EMD_Y182_P183T_YF] | 0.595 | 0.657 | 0.945 | 1.12 | 0.999 | 2.23 | 1.29 | 1.53 | 0.897 | 1.04 | 0.93 | 2.47 | 0.882 | 0.785 | 2.65 | 2.49
6 | LDLSYYTTSSS [EMD_Y182_P183T] | 1.49 | 0.64 | 0.73 | 1.07 | 1.01 | 1.84 | 0.863 | 1.21 | 0.731 | 0.978 | 0.967 | 0.982 | 0.635 | 0.908 | 1.36 | 1.93
7 | LDPDSYNMFEN [FOXC1_Y159] | 0.575 | 0.504 | 0.667 | 0.675 | 0.465 | 1.38 | 0.865 | 0.855 | 0.635 | 0.637 | 0.531 | 0.74 | 0.527 | 0.579 | 1.14 | 1.44
8 | LENQTYFRSFE [AKAP9_Y2482_K2484R] | 0.624 | 0.546 | 0.803 | 0.571 | 0.678 | 0.881 | 0.811 | 1.02 | 0.537 | 0.487 | 0.851 | 0.843 | 0.632 | 0.55 | 1.14 | 1.09
9 | LEPGIYIPEDD [XPNPEP3_Y455_I450L] | 0.456 | 0.455 | 0.881 | 0.556 | 0.558 | 1.58 | 0.717 | 1.22 | 0.653 | 0.716 | 0.705 | 0.974 | 0.709 | 0.518 | 1.5 | 1.24
10 | LEQRPYRRESE [KCNJ12_Y427] | 0.267 | 0.945 | 0.621 | 0.333 | 0.52 | 0.746 | 0.643 | 0.666 | 0.618 | 0.591 | 0.91 | 0.519 | 0.367 | 0.385 | 1.01 | 0.461
11 | LEYAKYGSLRG [RET_Y809_V804L] | 0.529 | 0.785 | 0.619 | 0.651 | 2.57 | 0.63 | 2.96 | 0.618 | 0.687 | 3.25 | 1.87 | 1.73 | 2.26 | 2.49 | 0.765 | 0.55
12 | LFSNAYLSDLA [ALDH1A1_Y119_N121S_YF] | 0.36 | 0.601 | 0.783 | 2.39 | 0.974 | 2.21 | 1.15 | 1.42 | 1.81 | 2.12 | 1.23 | 2.14 | 1.31 | 2.79 | 2.92 | 2.06
13 | LGPDGYSTVDQ [ARVCF_Y901_R906Q] | 36 | 1.77 | 1.21 | 1.04 | 0.9 | 1.63 | 1.22 | 1.21 | 0.707 | 0.876 | 0.982 | 1.31 | 0.833 | 0.848 | 2.87 | 1.72
14 | LGQGKYSEVFE [CSNK2A1_Y50_R47Q] | 3.54 | 0.829 | 0.95 | 0.51 | 0.477 | 1.05 | 0.552 | 0.591 | 0.535 | 0.508 | 0.489 | 0.709 | 0.455 | 0.574 | 1 | 0.857
15 | LGQRIYQFIQS [DYRK1B_Y271_YF] | 2.23 | 1.33 | 1.02 | 2.23 | 4.98 | 0.916 | 5.42 | 1.5 | 8.85 | 11.7 | 2.42 | 1.3 | 10.1 | 4.15 | 1.26 | 0.725
16 | LHAALYERKLL [TTLL5_Y542] | 0.622 | 0.835 | 0.621 | 0.896 | 0.772 | 1.43 | 0.798 | 1.13 | 0.544 | 1.27 | 1.12 | 0.934 | 0.63 | 0.479 | 1.91 | 1.04
17 | LHNLSYQLEAE [PKP2_Y616] | 0.425 | 0.512 | 0.917 | 0.483 | 0.699 | 1.12 | 0.615 | 0.934 | 0.517 | 0.81 | 0.393 | 1.36 | 0.605 | 0.646 | 1.45 | 1.37

Row | Sequence | SH2 binding enrichment (c-Src SH2) | SH2 binding enrichment (SHP2-C SH2) | SH2 binding enrichment (Grb2 SH2) | phosphorylation enrichment (FGFR1) | phosphorylation enrichment (Hck) | phosphorylation enrichment (AncSZ) | phosphorylation enrichment (EPHB2) | phosphorylation enrichment (FGFR3) | phosphorylation enrichment (MERTK) | phosphorylation enrichment (EPHB1) | phosphorylation enrichment (Fyn) | phosphorylation enrichment (c-Abl (mouse)) | phosphorylation enrichment (Fer (mouse)) | phosphorylation enrichment (c-Src) | phosphorylation enrichment (Fes) | phosphorylation enrichment (Jak2)
18 | LIGWRYDDPEV [HSPA9_Y128_R126W] | 3.68 | 1 | 1.01 | 0.419 | 0.471 | 0.984 | 0.859 | 0.607 | 0.451 | 0.544 | 0.538 | 0.652 | 0.416 | 0.43 | 1.24 | 1.17
19 | LILENYGADID [DNAH5_Y596] | 0.669 | 0.685 | 0.939 | 0.935 | 0.889 | 1.84 | 0.856 | 1.32 | 0.574 | 1.11 | 0.883 | 0.841 | 0.809 | 0.56 | 1.4 | 1.25
20 | LKGQVYILGQE [ASS1_Y359_R363Q] | 0.539 | 0.761 | 1.17 | 0.939 | 1.07 | 1.84 | 0.848 | 1.26 | 0.843 | 1.09 | 0.816 | 1.77 | 0.802 | 1.28 | 2.47 | 1.98
21 | LKRCQYVTKKV [ALDOA_Y204_E207K] | 0.788 | 1.02 | 0.946 | 0.807 | 0.371 | 1 | 0.506 | 0.548 | 0.535 | 0.432 | 0.806 | 0.605 | 0.582 | 0.545 | 0.821 | 0.752
22 | LLIVEYAKFGS [RET_Y806_YF] | 1.05 | 1.29 | 1.14 | 0.909 | 1.25 | 1.79 | 1.72 | 1.36 | 0.585 | 5.93 | 1.4 | 1.67 | 1.16 | 1.13 | 1.83 | 1.6
23 | LLNAIYLSAKW [SERPING1_Y294] | 0.686 | 0.553 | 1.06 | 0.464 | 2.18 | 1.61 | 0.794 | 2.29 | 0.503 | 1.3 | 1.12 | 1.22 | 0.692 | 1.04 | 1.66 | 1.41
24 | LLPNAYIYVVQ [L1CAM_Y418_A415P] | 0.432 | 0.707 | 0.683 | 1.34 | 0.908 | 2.28 | 1.32 | 1.5 | 1.01 | 1.71 | 1.05 | 1.07 | 0.539 | 1 | 2.47 | 1.69
25 | LLQKTYNFNVL [SLC4A1_Y553_P548L_YF] | 0.593 | 0.916 | 1.09 | 0.889 | 0.88 | 1.41 | 0.984 | 1.24 | 0.997 | 0.909 | 0.749 | 0.77 | 1.05 | 0.594 | 1.2 | 0.81
26 | LLREWYMIFSR [HUWE1_Y4066_I4069F] | 0.852 | 1.05 | 1.21 | 0.713 | 0.915 | 2.11 | 1.57 | 1.14 | 0.932 | 1.07 | 0.755 | 1.8 | 0.943 | 1.45 | 2 | 2.17
27 | LLRLAYLADVF [ZBED5_Y476_I480V] | 1.82 | 2.41 | 1.97 | 0.577 | 0.628 | 1.18 | 0.583 | 0.725 | 0.537 | 0.74 | 0.484 | 0.704 | 0.633 | 0.47 | 1.19 | 0.924
28 | LLTKVYVVEGS [ZMPSTE24_Y253_P248L] | 0.456 | 0.66 | 0.795 | 0.9 | 0.795 | 1.65 | 0.994 | 1.23 | 0.668 | 0.816 | 0.586 | 0.773 | 0.819 | 0.657 | 2 | 1.23
29 | LMFPDYLPCSV [SAG_Y129_T125M] | 0.57 | 0.704 | 0.921 | 7.55 | 0.604 | 2.76 | 0.92 | 4.58 | 0.486 | 1.07 | 0.743 | 0.985 | 1.19 | 0.772 | 1.55 | 3.69
30 | LMIEEYLTKEL [BAG3_Y457] | 0.514 | 1.16 | 0.981 | 0.759 | 0.685 | 2.23 | 0.993 | 1.14 | 0.872 | 0.911 | 0.723 | 1.42 | 0.629 | 1.18 | 2.04 | 2.83
31 | LNNIIYRLERA [CUX2_Y1470_V1472L] | 0.557 | 1.84 | 1.62 | 0.907 | 1.01 | 1.67 | 1.37 | 1.19 | 1.1 | 1.24 | 2.59 | 1.31 | 0.812 | 3.45 | 1.37 | 1.27
32 | LPPGTYPSDFA [UNC5B_Y511] | 0.369 | 0.714 | 0.84 | 0.543 | 0.461 | 0.744 | 0.412 | 0.595 | 0.424 | 0.482 | 0.451 | 0.565 | 0.5 | 0.422 | 0.96 | 0.791
33 | LQRCKNSHMEP [TEX45_Y434_Y434N] | 0.691 | 0.942 | 1.15 | 0.958 | 0.741 | 0.599 | 0.848 | 0.729 | 0.809 | 0.939 | 0.956 | 0.641 | 0.782 | 0.747 | 0.865 | 0.9

From the supplement of paper PMC10065799, “High-throughput profiling of sequence recognition by tyrosine kinases and SH2 domains using bacterial peptide display” (eLife, 2023)
